Results taken from WO2010108824A1 (dated 2010).

T1: GST-ABD1+2 of L-plastin (human, UniProt P13796 106-627)
T1 construct: domain: ABD1+2; also called both ABDs combined; combination of the two ABDs; not shown: glutathione S-transferase tag of vector pGEX-2T
T1 sequence (looked up): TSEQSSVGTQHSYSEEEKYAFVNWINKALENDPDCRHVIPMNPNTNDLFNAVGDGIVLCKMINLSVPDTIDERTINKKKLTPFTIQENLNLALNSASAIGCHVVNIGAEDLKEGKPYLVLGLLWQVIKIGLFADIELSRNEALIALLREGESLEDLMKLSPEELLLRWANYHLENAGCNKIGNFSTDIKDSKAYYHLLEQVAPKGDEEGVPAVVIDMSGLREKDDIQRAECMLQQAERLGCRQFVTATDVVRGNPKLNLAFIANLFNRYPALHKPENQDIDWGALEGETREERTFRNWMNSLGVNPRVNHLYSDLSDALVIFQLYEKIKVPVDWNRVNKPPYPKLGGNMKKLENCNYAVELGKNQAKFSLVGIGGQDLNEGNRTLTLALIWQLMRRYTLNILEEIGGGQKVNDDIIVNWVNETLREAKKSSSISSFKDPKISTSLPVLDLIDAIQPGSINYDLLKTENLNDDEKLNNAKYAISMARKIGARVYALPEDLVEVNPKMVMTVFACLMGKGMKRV

B1: L-plastin nanobody 5 (VHH)
VHH: QVQLQESGGGLVQAGDSLRLSCAVSGGTFGRVGVGWFRRAPGKEREFVAAVNWSGISTFYADSVKGRFTISRDDNKHTVDLRMNSLKPEDSAVYFCATDFRFNVPMNGTEYDYWGQGTQVTVSS
notes: Alpaca VHH; His6-tagged recombinant protein (pHEN6c, E. coli) in ITC, gel filtration, pull-down, cross-linking and co-sedimentation; V5-tagged, MOM-V5-tagged or GFP-fused when expressed in PC-3 cells; also called Nb 5; Nb5
B2: human L-plastin (other, UniProt P13796 2-627, looked up)
chain: ARGSVSDEEMMELREAFAKVDTDGNGYISFNELNDLFKAACLPLPGYRVREITENLMATGDLDQDGRISFDEFIKIFHGLKSTDVAKTFRKAINKKEGICAIGGTSEQSSVGTQHSYSEEEKYAFVNWINKALENDPDCRHVIPMNPNTNDLFNAVGDGIVLCKMINLSVPDTIDERTINKKKLTPFTIQENLNLALNSASAIGCHVVNIGAEDLKEGKPYLVLGLLWQVIKIGLFADIELSRNEALIALLREGESLEDLMKLSPEELLLRWANYHLENAGCNKIGNFSTDIKDSKAYYHLLEQVAPKGDEEGVPAVVIDMSGLREKDDIQRAECMLQQAERLGCRQFVTATDVVRGNPKLNLAFIANLFNRYPALHKPENQDIDWGALEGETREERTFRNWMNSLGVNPRVNHLYSDLSDALVIFQLYEKIKVPVDWNRVNKPPYPKLGGNMKKLENCNYAVELGKNQAKFSLVGIGGQDLNEGNRTLTLALIWQLMRRYTLNILEEIGGGQKVNDDIIVNWVNETLREAKKSSSISSFKDPKISTSLPVLDLIDAIQPGSINYDLLKTENLNDDEKLNNAKYAISMARKIGARVYALPEDLVEVNPKMVMTVFACLMGKGMKRV
notes: mature; the assay field says which; also called L-fimbrin; endogenous L-plastin

Legend:
GST-ABD1+2 of L-plastin = target: T1, GST-ABD1+2 of L-plastin; test: ITC, nanobody with GST-tagged L-plastin domain
human L-plastin = target: B2; test: ITC, L-plastin titrated with His6-tagged nanobody
[1] = target: the molecule itself; test: Superdex 200 HR gel filtration of L-plastin alone

| Binder | Kd (GST-ABD1+2 of L-plastin) [nM] | Kd (human L-plastin) [nM] | binding result [1] |
| --- | --- | --- | --- |
| B1 | 46.5 | ~40 |  |
| B2 |  |  | binds |
